The record followed here is US20190185569A1 (published 2019).

A word on the EC50: it is the concentration at which the effect is half-maximal. Lower therefore signals an effect from little substance. What is called Kd is a measure of binding affinity in units of concentration. Read a high Kd as a looser complex. Broadly, the koff is the first-order rate constant of dissociation. Higher therefore signals a short-lived complex. In general, kon refers to a measure of how fast the partners come together. Read a high kon as faster complex formation.

Assay [1] deals with T cell surface antigens CTLA4 and PD-1. Description: flow cytometry, PHA-stimulated CD4+ T cells; Ab 100 nM. For orientation: Flow cytometry measures light scatter and fluorescence of single cells or particles in a stream.
Assay [2] deals with T1, PD-1-mFc (mouse, UniProt Q15116 25-170 (human entry), limits assumed).
T1 construct: extracellular domain; a TEV site is implied; not shown: mouse IgG Fc fragment (mFc)
T1 sequence (Q15116 25-170 limits assumed): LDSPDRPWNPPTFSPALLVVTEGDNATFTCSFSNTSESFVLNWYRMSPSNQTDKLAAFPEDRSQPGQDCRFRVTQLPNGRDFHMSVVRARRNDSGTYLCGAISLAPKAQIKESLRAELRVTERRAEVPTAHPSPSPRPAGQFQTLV
Kind of assay: competition ELISA, coat PD-1-mFc 0.2 ug/mL, PDL1-hFc 2 ug/ml.

For assay [3], the target named is T1, PD-1-mFc. Kind of assay: indirect ELISA, coat PD-1-mFc 0.5 ug/mL. As to the method: TMB (Neogen, 308177) was added to react for 5 mins. The absorbance was read at the wavelength of 450 nm in a microplate reader.
(In general: In an ELISA, binding on a coated surface is turned into a signal by an enzyme label.)

Assay [4] concerns the target T2, PD-1 antigen obtained by digesting PD-1-mFc with TEV protease (UniProt Q15116 25-170, limits assumed, biotin-labelled (sites not given)).
T2 construct: extracellular domain; also called antigen PD-1
Description: BLI (Fortebio), biotin-PD-1 on SA sensor, antibody in solution. As to the method: The antibodies were diluted with PBST from 200 nM down three fold each time. The dissociation was also in PBST.

The target of assay [5] is T3, CTLA4 antigen obtained by digesting CTLA4-mFc with TEV protease (human, UniProt P16410 36-161).
T3 construct: extracellular domain; Biotin-labelled when immobilised on SA sensors; also called CTLA4 protein; antigen CTLA4
T3 sequence (P16410 36-161): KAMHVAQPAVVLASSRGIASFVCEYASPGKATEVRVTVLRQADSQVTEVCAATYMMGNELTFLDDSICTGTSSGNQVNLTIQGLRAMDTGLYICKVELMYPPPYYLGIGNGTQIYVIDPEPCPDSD
Description: BLI (Fortebio), antibody amine-coupled on AR2G sensor, CTLA4 in solution. As to the method:
1.2 Antibody 4G10 was immobilized to AR2GBiosensors by amine coupling method, and then blocked with ethanolamine and equilibrating in PBST, and then bound to CTLA4. CTLA4 was double gradient diluted with PB ST to the concentrations of 268.1, 134.1, 67, 33.5, 16.8, 8.38, 4.19, and 0 nM. The dissociation was also in PBST.
For orientation: Biolayer interferometry detects binding as a change in optical thickness at a sensor tip.

T2 sequence (Q15116 25-170 limits assumed): as the sequence (Q15116 25-170 limits assumed) above

In turn, hIgG (antibody) yielded an MFI (fluorescence intensity) in assay [1] of 10.2.

B1: monoclonal antibody 14C12 (antibody, V domains shown)
VH: EVKLVESGGGLVKPGGSLKLSCAASGFAFSSYDMSWVRQTPEKRLEWVATISGGGRYTYYPDSVKGRFTISRDNARNTLYLQMSSLRSEDTALYYCANRYGEAWFAYWGQGTLVTVSA
VL: DIKMTQSPSSMYASLGERVTFTCKASQDINTYLSWFQQKPGKSPKTLIYRANRLVDGVPSRFSGSGSGQDYSLTISSLEYEDMGIYYCLQYDEFPLTFGAGTKLEL
notes: Mouse hybridoma antibody; also called antibody secreted by hybridoma LT003 (PD-1-14C12)
On to B1, for which, in assay [2], the EC50 is 0.853 nM. Also, a half-maximal effect in assay [3] (EC50) was put at 0.175 nM. In assay [4], the dissociation constant Kd came to 0.0181 nM, the off-rate (koff) is 6.12e-06 s⁻¹ and the kon is 338000 M⁻¹ s⁻¹.

B2: monoclonal antibody 4G10 (antibody, V domains shown)
VH: QVKLQESGPELVKPGASMKISCKASGYSFTGYTMNWVKQSHGKNLEWIGLINPYNNITNYNQKFMGKATFTVDKSSSTAYMELLRLTSEDSGVYFCARLDYRSYWGQGTLVTVSA
VL: QAVVTQESALTTSPGETVTLTCRSSTGAVTTSNFANWVQEKPDHLFTSLIGGTNNRAPGVPARFSGSLIGDKAALTITGAQTEDEAIYFCALWYSNHWVFGGGTKLTVLG
notes: Mouse hybridoma antibody purified on protein A; also called antibody secreted by hybridoma LT002 (CTLA4-4G10)
In assay [5], B2 had a dissociation constant (Kd) of 0.301 nM, a koff of 0.000114 s⁻¹ and a kon of 378000 M⁻¹ s⁻¹.
